In general, Kd refers to the constant that tells how readily two partners part at equilibrium. Broadly, the koff is a measure of how fast the partners let go of each other. The term kon denotes a measure of how fast the partners come together.

Numbering of substitutions follows the chain as printed. Names and notes keep the numbering of the source.

From US20230303695A1 (SHANGHAI XBH BIOTECHNOLOGY, published 2023) come the findings set out here.

The chains are these.
T1: recombinant human IGSF8 extracellular domain tagged by a human Fc region (IGSF8-hFc) (human, UniProt Q969P0 28-579, biotin label in Examples 17, 18 and 28 (site not given))
T1 construct: also called IGSF8-Fc fusion protein; IGSF8-hFc-biotin; not shown: human Fc region
T1 sequence: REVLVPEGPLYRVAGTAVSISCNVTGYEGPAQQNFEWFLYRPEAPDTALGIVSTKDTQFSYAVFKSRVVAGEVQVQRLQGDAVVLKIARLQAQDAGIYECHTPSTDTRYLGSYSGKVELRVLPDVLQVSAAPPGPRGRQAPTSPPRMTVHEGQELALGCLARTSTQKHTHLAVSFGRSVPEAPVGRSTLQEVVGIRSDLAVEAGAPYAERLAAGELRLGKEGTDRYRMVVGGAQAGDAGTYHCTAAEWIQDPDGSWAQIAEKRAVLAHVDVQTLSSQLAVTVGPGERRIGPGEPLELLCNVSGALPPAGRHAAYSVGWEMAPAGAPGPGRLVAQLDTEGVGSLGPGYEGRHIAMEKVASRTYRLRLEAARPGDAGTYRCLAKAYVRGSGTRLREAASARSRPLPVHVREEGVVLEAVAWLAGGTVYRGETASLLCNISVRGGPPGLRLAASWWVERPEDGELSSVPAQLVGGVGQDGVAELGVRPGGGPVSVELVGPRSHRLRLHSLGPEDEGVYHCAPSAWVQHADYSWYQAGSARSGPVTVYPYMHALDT

B1: L2-08 (antibody, V domains shown)
VH: EVQLVESGGGLEQPGGSLRLSCAASGFTFRDYAMTWVRQAPGKGLEWVSSISGSGGSTYYADSVKGRFTISRDNSKNTLYLQMNSLRAEDTAIYYCARGEYSSGWPSWFDPWGQGTLVTVSS
VL: DIQMTQSPSSLSASVGDRVTITCRASRTVGTFLNWYQQKPGKAPKALILGVSILEGGVPSRFSGSGSGTDFTLTISSLQPEDIATYYCQQSHDVPRTFGQGTKVEIK
B2: L2VH-R98K (antibody, V domains shown)
VH: B1 VH with A24G, S57N, R98K
VL: EIVLTQSPSSLSASVGDRVTISCRASRTVGTFLNWYQQRPGKPPQALILGVSILEGGVSSRFSGAGSGTEFSLTISSLQPEDIGTYYCQQSHDVPRTFGQGTKVDLR
B3: L2-03 (antibody, V domains shown)
VH: B1 VH with A24G
VL: B2 VL
B4: L2-09 (antibody, V domains shown)
VH: B1 VH
VL: B1 VL with G50H, V51T, A84G
B5: L2-07 (antibody, V domains shown)
VH: B1 VH
VL: B1 VL with A84G
B6: L2-05 (antibody, V domains shown)
VH: B1 VH with S50A
VL: B2 VL
B7: L2VL-I53S (antibody, V domains shown)
VH: B1 VH with A24G, S57N
VL: B2 VL with I53S
B8: L2VH-T35S (antibody, V domains shown)
VH: B1 VH with A24G, T35S, S57N
VL: B2 VL
B9: L2-02 (antibody, V domains shown)
VH: B1 VH with A24G, S57N
VL: B2 VL with G50H, V51T
B10: L2VH-R30S (antibody, V domains shown)
VH: B1 VH with A24G, R30S, S57N
VL: B2 VL
B11: L2-04 (antibody, V domains shown)
VH: B1 VH
VL: B2 VL
B12: L2VL-G56S (antibody, V domains shown)
VH: B1 VH with A24G, S57N
VL: B2 VL with G56S
B13: L2VH-S50A (antibody, V domains shown)
VH: B1 VH with A24G, S50A, S57N
VL: B2 VL
B14: L2VL-S52V (antibody, V domains shown)
VH: B1 VH with A24G, S57N
VL: B2 VL with S52V
B15: L2-06 (antibody, V domains shown)
VH: B1 VH
VL: B1 VL with P80L, I83F
B16: L2VL-D93S (antibody, V domains shown)
VH: B1 VH with A24G, S57N
VL: B2 VL with D93S
B17: L2VH-D31S (antibody, V domains shown)
VH: B1 VH with A24G, D31S, S57N
VL: B2 VL
B18: L1-02 (antibody, V domains shown)
VH: QVQLVESGGGVVQPGRSLRLSCAASGFTFSTYGMHWVRQAPGKGLEWVAVIWDDGSYKYYGDSVKGRFTISRDNSKNTLYLQMNSLRAEDTAVYYCARDGSGWGYAFDIWGQGTMVTVSS
VL: DIQLTQSPSSLSASVGDRVTITCQASQDISKPLNWYQHKPGKAPNPLVFDAANLETGVPPRFSATGSGTDFSLTITSLQPEDFATYYCQQYDSFPYTFGQGTRLDIK
B19: L1-04 (antibody, V domains shown)
VH: B18 VH
VL: B18 VL with K31E, P32Y, D50G, A51S, A52P
B20: L1-07 (antibody, V domains shown)
VH: B18 VH
VL: B18 VL with S30E, K31W, P32W
B21: L1-05 (antibody, V domains shown)
VH: B18 VH
VL: B18 VL with S30T, P32G
B22: L1-03 (antibody, V domains shown)
VH: B18 VH
VL: B18 VL with K31E, P32Y, D50R, A51S, A52P
B23: L1-06 (antibody, V domains shown)
VH: B18 VH
VL: B18 VL with S30G, K31P, P32W

The target of this assay is T1, recombinant human IGSF8 extracellular …. Description: SPR, Ab captured. Here is the method: The binding affinities of the L1 and L2 antibodies to IGSF8 recombinant protein were determined by surface plasmon resonance (SPR). Briefly, anti-human Fab antibody was imobilized on acarboxyl-derivatized SPR chip surface, and the antibodies were captured on the resulting surface at 5 μg/ml for 30 seconds.
Background: SPR reads the build-up and loss of mass on a sensor chip optically.
As for B1, the Kd worked out at 0.869 nM, the koff stood at 0.000112 s⁻¹ and the kon came to 129000 M⁻¹ s⁻¹.
Regarding B2, the Kd is 48.7 nM, the koff worked out at 0.00248 s⁻¹ and the kon is 51000 M⁻¹ s⁻¹.
As for B3, the Kd amounted to 3.27 nM, the koff is 0.000465 s⁻¹ and the kon was determined as 142000 M⁻¹ s⁻¹.
For the molecule B4, the Kd stood at 0.475 nM, the koff is 7.15e-05 s⁻¹ and the on-rate constant (kon) was determined as 151000 M⁻¹ s⁻¹.
As to B5, the Kd is 1.16 nM, the koff was determined as 0.000129 s⁻¹ and the kon was determined as 111000 M⁻¹ s⁻¹.
On to B6, for which the Kd amounted to 2.63 nM, the koff came out at 0.000112 s⁻¹ and the kon is 42700 M⁻¹ s⁻¹.
As to B7, the Kd was 1280 nM, the koff was 0.00173 s⁻¹ and the kon amounted to 1350 M⁻¹ s⁻¹.
The corresponding values for B8 are 22.8 nM, 0.00139 s⁻¹ and 61100 M⁻¹ s⁻¹.
The corresponding values for B9 are 4.85 nM, 0.000131 s⁻¹ and 27100 M⁻¹ s⁻¹.
With B10, the Kd was found to be 146 nM, the koff worked out at 0.00165 s⁻¹ and the kon is 11400 M⁻¹ s⁻¹.
The corresponding values for B11 are 2.98 nM, 0.000142 s⁻¹ and 47600 M⁻¹ s⁻¹.
Take B12: the dissociation constant (Kd) stood at 29.1 nM, the koff was determined as 0.00311 s⁻¹ and the kon was 107000 M⁻¹ s⁻¹.
Consider B13, for which the Kd worked out at 23.7 nM, the koff came to 0.000486 s⁻¹ and the kon was 20500 M⁻¹ s⁻¹.
As for B14, the Kd worked out at 64.5 nM, the koff turned out to be 0.000806 s⁻¹ and the kon stood at 12500 M⁻¹ s⁻¹.
The corresponding values for B15 are 5.45 nM, 0.000249 s⁻¹ and 45700 M⁻¹ s⁻¹.
For the molecule B16, the Kd turned out to be 68 nM, the koff turned out to be 0.00202 s⁻¹ and the kon was determined as 29700 M⁻¹ s⁻¹.
With B17, the Kd is 465 nM, the koff worked out at 0.00567 s⁻¹ and the kon worked out at 12200 M⁻¹ s⁻¹.
In the case of B18, the Kd was 4.22 nM, the koff worked out at 0.00127 s⁻¹ and the kon was 300000 M⁻¹ s⁻¹.
With B19, the Kd worked out at 7.33 nM, the koff is 0.0022 s⁻¹ and the kon turned out to be 300000 M⁻¹ s⁻¹.
Take B20: the Kd turned out to be 1.34 nM, the koff is 0.000445 s⁻¹ and the kon worked out at 332000 M⁻¹ s⁻¹.
The corresponding values for B21 are 6.17 nM, 0.00148 s⁻¹ and 241000 M⁻¹ s⁻¹.
The corresponding values for B22 are 5.88 nM, 0.00172 s⁻¹ and 293000 M⁻¹ s⁻¹.
As for B23, the Kd came out at 2.3 nM, the koff is 0.00104 s⁻¹ and the kon turned out to be 453000 M⁻¹ s⁻¹.
